Positions count from the first letter of the chain named. Numbers in names are those of the source.
B1: D2E7 combination variant Y32K/SS-R30I (antibody, V domains shown)
VH: not shown
VL: DIQMTQSPSSLSASVGDRVTITCRASQSIINYLSWYQQKPGKAPKLLIYAASTLQSGVPSRFSGSGSGTDFTLTISSLQPEDVATYYCQRYNRAPYTFGQGTKVEIK
B2: D2E7 combination variant Y32K/SS-R30T (antibody, V domains shown)
VH: not shown
VL: B1 VL with I30T

Molecular target: Human TNF-α (R&D Systems) (human, UniProt P01375 77-233, labeled with Alexa Fluor 647 in the FACS assays)
Assay: Biacore

Sequence of Human TNF-α (R&D Systems) (P01375 77-233): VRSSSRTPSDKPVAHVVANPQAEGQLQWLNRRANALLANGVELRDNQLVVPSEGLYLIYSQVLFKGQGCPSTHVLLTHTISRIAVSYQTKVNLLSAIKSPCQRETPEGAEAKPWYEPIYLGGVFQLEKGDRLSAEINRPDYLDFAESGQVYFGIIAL

Binder | Kd [pM]
B1 | 149
B2 | 130

Source: patent publication US20140227251A1 (published 2014)
